Measurements reported in patent publication US20260217813A1 (published 2026).
Changes are numbered by the printed parent chain.

T1: human IL-23 (IL-23-His-Biotin, Akesobio, 20161209) (human, UniProt Q9NPF7 20-189; P29460 23-328)
T1 construct: His-tagged and biotinylated; also called human IL23-His-Biotin
T1 sequence (looked up) 1: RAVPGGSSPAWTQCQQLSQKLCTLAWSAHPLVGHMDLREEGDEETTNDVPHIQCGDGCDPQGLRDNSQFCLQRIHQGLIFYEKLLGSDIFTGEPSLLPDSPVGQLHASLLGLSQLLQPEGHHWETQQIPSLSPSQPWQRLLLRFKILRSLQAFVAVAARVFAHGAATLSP
T1 sequence (looked up) 2: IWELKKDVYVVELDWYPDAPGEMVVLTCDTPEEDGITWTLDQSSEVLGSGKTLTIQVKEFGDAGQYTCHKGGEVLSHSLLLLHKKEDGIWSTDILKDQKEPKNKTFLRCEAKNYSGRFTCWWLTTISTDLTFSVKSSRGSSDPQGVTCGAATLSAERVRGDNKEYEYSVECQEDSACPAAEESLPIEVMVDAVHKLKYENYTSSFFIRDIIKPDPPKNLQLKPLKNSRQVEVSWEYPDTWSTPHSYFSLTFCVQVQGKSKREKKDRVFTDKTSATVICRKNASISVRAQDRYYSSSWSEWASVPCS

T2: IL-12 (Human IL12 (His Tag)), Sino Biological Cat. No. CT-050-H08H-20 (human, UniProt P29460 23-328; P29459 23-219)
T2 construct: Bought His-tagged p35/p40 heterodimer
T2 sequence (looked up) 1: T1 sequence (looked up) 2
T2 sequence (looked up) 2: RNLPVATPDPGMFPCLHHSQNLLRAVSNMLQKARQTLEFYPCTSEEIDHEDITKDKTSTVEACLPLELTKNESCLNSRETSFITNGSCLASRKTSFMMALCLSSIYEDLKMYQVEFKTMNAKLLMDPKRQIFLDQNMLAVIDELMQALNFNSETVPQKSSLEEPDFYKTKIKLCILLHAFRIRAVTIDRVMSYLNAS

B1: ustekinumab (trade name Stelara) (antibody, V domains shown)
VH: EVQLVQSGAEVKKPGESLKISCKGSGYSFTTYWLGWVRQMPGKGLDWIGIMSPVDSDIRYSPSFQGQVTMSVDKSITTAYLQWNSLKASDTAMYYCARRRPGQGYFDFWGQGTLVTVSS
VL: DIQMTQSPSSLSASVGDRVTITCRASQGISSWLAWYQQKPEKAPKSLIYAASSLQSGVPSRFSGSGSGTDFTLTISSLQPEDFATYYCQQYNIYPYTFGQGTKLEIK
B2: H5L9 (antibody, human IgG1, kappa, V domains shown)
VH: EVQLVQSGAEVKKPGESLKISCQSSGYSFTTYWIGWVRQMPGQGLEWIGIMSPVDSDIRYNPMFRGQVTMSVDKSSSTAYLQWSSLKASDTAMYYCARRRPGQGYFDFWGQGTMVTVSS
VL: DIQMTQSPSSLSASVGDRVTITCKASQNVGSWLAWYQQKPGKAPKSLIYSASSRQSGVPSRFSGSGSGTDFTLTISSLQPEDFATYYCQQYDIYPFTFGQGTKLEIKR
notes: Humanized anti-human IL-12/IL-23 p40 antibody; IgG1 (P01857) / kappa (P01834) constant regions
B3: H5L10 (antibody, human IgG1, kappa, V domains shown)
VH: B2 VH
VL: EIVLTQSPATLSASPGERATISCRASQSVGSWLAWYQQKPGQAPRSLIYAASNLQSGIPARFSGSGSGTDFTLTISSLEPEDFAVYYCQQYNIYPYTFGQGTRLEIKR
notes: IgG1/kappa
B4: H5L12 (antibody, human IgG1, kappa, V domains shown)
VH: B2 VH
VL: B3 VL with G30S, L54R
notes: IgG1/kappa
B5: H5L14 (antibody, human IgG1, kappa, V domains shown)
VH: B2 VH
VL: B3 VL with G30S, Y96F
notes: IgG1/kappa
B6: H5L11 (antibody, human IgG1, kappa, V domains shown)
VH: B2 VH
VL: B3 VL with G30S, A50S
notes: IgG1/kappa

biological target: T1, human IL-23 (IL-23-His-Biotin, …); assay: FACS competition, IL-23-His-Biotin 2 µg/mL on 293T-IL-12RB1&IL-23R cells, antibody 0.12 µg/mL
Method: (§1) 2.1. […] 200 μL of 1% PBSA was added into each sample, and the mixture was centrifuged at 700×g for 5 min to discard the supernatant. According to experiment design, correspondingly diluted antibody (highest final concentration of 30 μg/mL, 3-fold dilution, 8 concentrations in total) and human IL-23 (IL-23-His-Biotin, Akesobio, 20161209) (final concentration of 2 μg/mL) were mixed at a ratio of 1:1, and a blank control was set. The mixture of antibody and human IL23 was incubated on ice for 30 min and then added to the cell precipitate at 100 μL/sample. The resulting mixture was well mixed and incubated on ice for 60 min. 200 μL of 1% PBSA was added, and the mixture was centrifuged at 700×g for 5 min to discard the supernatant, and then washed twice. FITC Streptavidin (Biolegend, Cat. No.: 405202) was diluted at a ratio of 1:500 and added to each tube at 100 μL. The mixture was well mixed and incubated on ice for 40 min in the absence of light. 200 μL of 1% PBSA was added, and the mixture was centrifuged at 700×g for 5 min to discard the supernatant, and then washed twice. 1% PBSA was added at 200 μL/tube, and the cells were resuspended and transferred to a flow cytometry tube for testing.

Binder	MFI
B1	211
B2	217
B3	221
B4	211
B5	203
B6	219

biological target: T1, human IL-23 (IL-23-His-Biotin, …); assay: FACS competition, IL-23-His-Biotin 2 µg/mL on 293T-IL-12RB1&IL-23R cells, antibody 0.04 µg/mL
Method: as §1

Binder	MFI
B1	216
B2	221
B3	230
B4	234
B5	216
B6	224

biological target: T1, human IL-23 (IL-23-His-Biotin, …); assay: FACS competition, IL-23-His-Biotin 2 µg/mL on 293T-IL-12RB1&IL-23R cells, antibody 0.37 µg/mL
Method: as §1

Binder	MFI
B1	186
B2	206
B3	169
B4	177
B5	179
B6	179

biological target: T2, IL-12 (Human IL12 (His Tag)), Sino …; assay: FACS competition, IL-12-His 20 nM on 293T-IL-12RB1&IL-23R cells, antibody 0.04 µg/mL
Method: (§2) 200 μL of 1% PBSA was added into each sample, and the mixture was centrifuged at 700×g for 5 min to discard the supernatant. According to experiment design, correspondingly diluted antibody (highest final concentration of 30 μg/mL, 3-fold dilution, 8 concentrations in total) and human IL-12 (Sino Biological, Cat. No.: CT-050-H08H-20) (final concentration of 20 nM) were mixed at a ratio of 1:1, and a blank control was set. The mixture of antibody and human IL12 was incubated on ice for 30 min and then added to the cell precipitate at 100 μL/sample. The resulting mixture was well mixed and incubated on ice for 60 min. 200 μL of 1% PBSA was added, and the mixture was centrifuged at 700×g for 5 min to discard the supernatant, and then washed twice. Alexa Fluor® 488 anti-His tag antibody (Biolegend, Cat. No.: 652509) was diluted at a ratio of 1:400 and added to each tube at 100 μL. The mixture was well mixed and incubated on ice for 40 min in the absence of light. 200 μL of 1% PBSA was added, and the mixture was centrifuged at 700×g for 5 min to discard the supernatant, and then washed twice. 1% PBSA was added at 200 μL/tube, and the cells were resuspended and transferred to a flow cytometry tube for testing.

Binder	MFI
B1	150
B2	158
B3	154
B4	149
B5	155
B6	151

biological target: T1, human IL-23 (IL-23-His-Biotin, …); assay: FACS competition, IL-23-His-Biotin 2 µg/mL on 293T-IL-12RB1&IL-23R cells, antibody 1.11 µg/mL
Method: as §1

Binder	MFI
B1	121
B2	184
B3	81.6
B4	88.5
B5	95.6
B6	97.6

biological target: T1, human IL-23 (IL-23-His-Biotin, …); assay: FACS competition, IL-23-His-Biotin 2 µg/mL on 293T-IL-12RB1&IL-23R cells, antibody 30 µg/mL
Method: as §1

Binder	MFI
B1	9.64
B2	104
B3	11.9
B4	12.3
B5	14.1
B6	12.9

biological target: T2, IL-12 (Human IL12 (His Tag)), Sino …; assay: FACS competition, IL-12-His 20 nM on 293T-IL-12RB1&IL-23R cells, antibody 10 µg/mL
Method: as §2

Binder	MFI
B1	31
B2	134
B3	34.1
B4	32.4
B5	46.3
B6	33.9

biological target: T2, IL-12 (Human IL12 (His Tag)), Sino …; assay: FACS competition, IL-12-His 20 nM on 293T-IL-12RB1&IL-23R cells, antibody 3.33 µg/mL
Method: as §2

Binder	MFI
B1	29.7
B2	146
B3	40.2
B4	31.8
B5	51.9
B6	42.2
